We go through 1 sequence from patent US12116387B2, “Antimicrobial peptides” (priority 2021, dated 2024).

Series [1] has as its system E. coli ATCC8739 and clinical isolate E. coli 1812446 (KPC-positive). Briefly: Systemic sepsis infection mouse model, E. coli strains. Type of series: in vivo. The settings on record: 5 mg Kg^−1 i.p., 3 h post-infection. How it is done: (§1) FIG. 5A-5I pertains to a study of the anti-infective activity of mast-MO against Gram-negative and Gram-positive pathogens in a lethal sepsis infection model. In FIG. 5A mice were infected with bacteria, treated with each peptide or antibiotic and monitored for 8 days. Survival and cell counts after 24 h, respectively, are shown for E. coli ATCC8739 (2×10^4 CFU/mL inoculum) FIG. 5B and FIG. 5C, S. aureus ATCC29213 (2×10^9 CFU/mL inoculum) FIG. 5D and FIG. 5E, E. coli 1812446 (KPC-positive) (2×10^4 CFU inoculum) FIG. 5F and FIG. 5G, and S. aureus (MRSA) ATCC33591 (2×10^9 CFU inoculum) FIG. 5H and FIG. 5I. Mice were treated intraperitoneally (i.p.) with 1, 5 and 10 mg Kg^−1 of mast-L, mast-MO or 10 mg Kg^−1 of the antibiotics gentamicin and imipenem. PBS was used as a control for the untreated group of mice. Treatments were administered 3 h post-infection. Data are expressed as the mean±standard deviation. Statistical analysis was performed using Bonferroni test. […], **p<0.01, ***p<0.001 compared to the untreated control.
(§2) Systemic bacterial infection mouse model. […] Animals were humanely killed 24 h after bacterial administration.

For series [2], the system named is different human and murine cell lines. Nature of the series: Hemolysis and cytotoxicity, text summary over the cell lines of Table 2. In kind it is cell-based. The settings on record: range over cell lines.
Description: (§3) Once the mechanisms by which the peptide targeted bacterial cells was elucidawted, the effect of the pentapeptide motif insertion on cytotoxicity against mammalian cells was evaluated.
A further series has as its system S. aureus ATCC29213. Nature of the series: Systemic sepsis infection mouse model, S. aureus ATCC29213. The note with it: 5 mg Kg^−1 i.p. Type of series: in vivo. On the procedure: as §1, §2
Series [3] has as its system murine macrophages monocytes (RAW 264.7). Nature of the series: Cytotoxicity against RAW 264.7 cells (MTT). Type of series: cell-based. The note with it: RAW 264.7 (Table 2).
The subject of series [4] is human red blood cells (hRBCs). Briefly: Cytotoxicity / hemolysis against human red blood cells. In kind it is cell-based. The settings on record: hRBCs.
Description: as §3
Series [5] deals with murine fibroblasts (L929). Nature of the series: Cytotoxicity against L929 fibroblasts (MTT). In kind it is cell-based. The note with it: L929. On the procedure:
Mammalian cells toxicity assays. L929 mice fibroblasts (Rio de Janeiro Cell Bank) and SPCs were seeded in 96-well microtiter plates in a concentration of 1.0×10^5 cells per well, in DMEM medium, supplemented with different concentrations of tested peptides (1-600 μM). After 48 h incubation, a thiazolyl blue tetrazolium bromide (MTT) protocol was performed. Briefly, 60% of the medium was removed, and 10 μL of MTT (5 mg mL^−1) (Sigma, USA) solution was added to each well and the plate was incubated for 4 h, in 5% CO2, at 37° C. The blue formazan product generated was dissolved by the addition of 100 μL of 100% DMSO (Mallinckrodt, Germany) per well. Plates were then gently swirled for 5 min, at room temperature, to dissolve the precipitate. The absorbance was monitored at 575 nm using a microplate spectrophotometer (Bio-Tek, USA). Cytotoxicity was determined as a percentage of the maximum value after subtracting the background. The results were expressed as the percentage of each sample compared to the negative control (PBS buffer, pH 7.4) and cell culture was incubated in a lysis buffer (10 mM Tris, pH 7.4, 1 mM ethylenediamine tetraacetic acid (EDTA), and 0.1% Triton X-100).

The test system of the next series is leukocytes. Briefly: Leukocyte migration to the peritoneal cavity of mice infected with E. coli ATCC8739. The settings on record: mast-MO 10 mg Kg^−1, mast-L 5 mg Kg^−1. In kind it is in vivo, C57BL/6 mice. On the procedure:
To test whether the FLPII motif within the mast-MO sequence led to increased immunomodulatory and chemotactic properties with respect to mast-L, ELISA experiments were performed using the peritoneal fluid collected from mice (FIG. 5a). C57BL/6 mice were infected with both Gram-negative and Gram-positive pathogens and administered either mast-L or mast-MO intraperitoneally. For mice infected with E. coli ATCC8739, we monitored the peritoneal cavity to detect and quantify the release and presence of several immune mediators (FIG. 4E). […] This effect was similar to the positive control group of mice treated with […] (TGA) (FIG. 4B). […] We monitored, via ELISAs, the cytokine profiles present within the peritoneal cavity of mice infected with E. coli ATCC8739 and S. aureus ATCC29213 (FIGS. 4E and FIG. 4F, respectively) and treated with a single dose of peptide. […]
Isolation of leukocytes from the peritoneal cavity of mice. Leukocyte migration into the peritoneal cavity of uninfected C57BL/6 mice treated with 10 mg Kg^−1 of peptides was evaluated to assess the chemotactic activity of the peptides, as previously described (11). […] Leukocyte counts present in the in peritoneal cavity of mice infected with E. coli ATCC 8739 were quantified. […] The results are expressed as the number of cells per cavity (48).

For series [6], the system named is human embryonic kidney (HEK293) cells. Nature of the series: Cytotoxicity against HEK293 cells. Type of series: cell-based. The settings on record: HEK293. The source says: The FLPII motif was chosen for the permutations to preserve the natural antimicrobial activity of mast-L and also conserve the hydrophobic content inserted in the N-terminal extremity for the initial design of mast-MO. Next, we assessed the antimicrobial (FIG. 10) and cytotoxic activities of the mast-MO analog library against HEK293 cells (FIG. 6C). These specific cell line was chosen as it derives from human embryonic kidney cells and potential antimicrobial (i.e., AMPs, antibiotics) toxicity affects the kidneys, which are responsible for clearing such molecules (34). Also measured was whether the peptides aggregated at the highest concentration tested (128 μmoL^−1) (Table 7) since the motif inserted is composed of residues with aliphatic or aromatic side chain groups that may be prone to aggregation when in proximity within the primary peptide sequence, thus altering biological activity. Minor changes to the first five residues inserted in the mast-MO primary sequence led to a pronounced decrease in cytotoxic activity (2.5 to 5-fold) compared to mast-MO (FIG. 6C).

On to NLKALAALAKKIL [Mast-L], for which the values for the Survival (in series [1]; in the series with S. aureus ATCC29213) were 40 to 60% and 80%, respectively. Moreover, in series [2], the “Concentration hemolytic and toxic towards human and murine cell lines” value lay within 7 to 50 µmol⁻¹. For the same sequence, the “Cytotoxic activity, Peptide Concentration” value in series [3] came out at 10 µmol/L; in series [4] it was 7 µmol/L; in series [5] it was 10 µmol/L; in series [6], 50 µmol/L. In the series with leukocytes, the “Leukocyte recruitment over the time period tested, in words” value was “did not significantly induce leukocyte recruitment”.
